Measurements as given in patent US20090053241A1.

Assays:
1β4α (PDGFRβ/α chimera) = assay: ELISA (OD450), panel 'PDGF-AA BINDING TO PDGFRβ/α CHIMERAS'; axis 'CO…ON (nM)', titrated species not stated
h5α (human) = h5α (human) (UniProt P16234); assay: as above
[1] = target: β1-3 (shorter version of PDGFRβ, D1D2D3); assay: ELISA (OD450), panel 'PDGF-BB BINDING TO hPDGFRβ DELETIONS'; axis 'CO…ON (nM)', titrated species not stated

Chain of h5α (human) (P16234 24-524 limits assumed): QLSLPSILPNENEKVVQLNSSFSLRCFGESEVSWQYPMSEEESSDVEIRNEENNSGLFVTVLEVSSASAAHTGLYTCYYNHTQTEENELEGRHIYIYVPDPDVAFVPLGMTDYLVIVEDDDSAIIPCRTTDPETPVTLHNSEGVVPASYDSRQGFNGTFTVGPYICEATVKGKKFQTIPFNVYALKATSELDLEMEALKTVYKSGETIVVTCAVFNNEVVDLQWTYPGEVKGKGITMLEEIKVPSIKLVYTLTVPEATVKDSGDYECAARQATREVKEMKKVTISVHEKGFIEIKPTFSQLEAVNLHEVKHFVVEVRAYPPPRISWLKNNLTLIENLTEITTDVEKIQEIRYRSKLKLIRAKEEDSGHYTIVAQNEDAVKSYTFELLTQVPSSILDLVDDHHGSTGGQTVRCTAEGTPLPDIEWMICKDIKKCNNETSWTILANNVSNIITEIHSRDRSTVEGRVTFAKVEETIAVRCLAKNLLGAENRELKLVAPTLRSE
Chain of PDGF-BB (ligand) (P01127 82-190): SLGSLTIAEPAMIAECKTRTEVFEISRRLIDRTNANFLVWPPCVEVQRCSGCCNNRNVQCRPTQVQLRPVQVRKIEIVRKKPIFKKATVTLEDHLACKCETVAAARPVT
Chain of 1β4α (PDGFRβ/α chimera) (P16234 other isoform, or with tags, fused parts or gaps mutant): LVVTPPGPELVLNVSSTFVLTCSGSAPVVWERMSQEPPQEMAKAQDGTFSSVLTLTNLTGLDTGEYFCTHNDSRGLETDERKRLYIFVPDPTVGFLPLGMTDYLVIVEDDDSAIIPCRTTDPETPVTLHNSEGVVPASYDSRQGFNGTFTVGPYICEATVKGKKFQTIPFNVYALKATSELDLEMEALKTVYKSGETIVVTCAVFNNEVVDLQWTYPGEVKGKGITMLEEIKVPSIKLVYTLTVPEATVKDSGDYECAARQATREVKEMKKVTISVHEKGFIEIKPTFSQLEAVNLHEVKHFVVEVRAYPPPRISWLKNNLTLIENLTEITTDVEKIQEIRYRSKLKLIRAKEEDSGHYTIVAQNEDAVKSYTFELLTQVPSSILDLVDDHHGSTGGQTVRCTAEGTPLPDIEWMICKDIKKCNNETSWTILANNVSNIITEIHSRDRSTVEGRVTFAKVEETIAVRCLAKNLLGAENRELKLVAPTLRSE

| Substance | EC50 (read off the curve) (1β4α (PDGFRβ/α chimera)) | EC50 (read off the curve) (h5α (human)) | EC50 (read off the curve) [1] |
| --- | --- | --- | --- |
| PDGF-AA (ligand) | 0.05 nM | 0.02 nM | – |
| PDGF-BB (ligand) | – | – | 0.06 nM |
